US20260209362A1 (VIB VZW, published 2026)

T1: biotinylated recombinant human IL-12Rβ2 (human, UniProt Q99665 24-622, random biotinylated)
T1 construct: Recombinant protein produced in-house; also called hIL-12RB2; human IL-12RB2
T1 sequence: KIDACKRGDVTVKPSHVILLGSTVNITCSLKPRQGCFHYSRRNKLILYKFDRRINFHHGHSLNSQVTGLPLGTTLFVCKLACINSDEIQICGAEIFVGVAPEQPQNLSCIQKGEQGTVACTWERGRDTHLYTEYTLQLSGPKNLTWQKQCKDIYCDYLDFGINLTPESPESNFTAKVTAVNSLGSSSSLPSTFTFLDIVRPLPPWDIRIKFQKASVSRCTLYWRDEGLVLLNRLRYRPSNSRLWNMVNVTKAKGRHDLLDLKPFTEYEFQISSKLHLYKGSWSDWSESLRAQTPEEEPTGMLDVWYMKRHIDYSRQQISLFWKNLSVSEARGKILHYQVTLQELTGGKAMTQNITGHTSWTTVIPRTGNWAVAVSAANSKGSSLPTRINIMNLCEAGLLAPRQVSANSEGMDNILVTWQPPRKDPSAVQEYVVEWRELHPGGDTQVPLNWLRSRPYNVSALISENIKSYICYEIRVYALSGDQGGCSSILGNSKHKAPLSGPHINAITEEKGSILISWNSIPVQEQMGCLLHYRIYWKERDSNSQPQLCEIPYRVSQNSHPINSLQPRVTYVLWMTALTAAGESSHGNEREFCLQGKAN

T2: biotinylated recombinant mouse IL-12Rβ2 (mouse, UniProt P97378 24-637, random biotinylated)
T2 construct: Recombinant protein produced in-house; also called mIL-12RB2; mouse IL-12RB2
T2 sequence: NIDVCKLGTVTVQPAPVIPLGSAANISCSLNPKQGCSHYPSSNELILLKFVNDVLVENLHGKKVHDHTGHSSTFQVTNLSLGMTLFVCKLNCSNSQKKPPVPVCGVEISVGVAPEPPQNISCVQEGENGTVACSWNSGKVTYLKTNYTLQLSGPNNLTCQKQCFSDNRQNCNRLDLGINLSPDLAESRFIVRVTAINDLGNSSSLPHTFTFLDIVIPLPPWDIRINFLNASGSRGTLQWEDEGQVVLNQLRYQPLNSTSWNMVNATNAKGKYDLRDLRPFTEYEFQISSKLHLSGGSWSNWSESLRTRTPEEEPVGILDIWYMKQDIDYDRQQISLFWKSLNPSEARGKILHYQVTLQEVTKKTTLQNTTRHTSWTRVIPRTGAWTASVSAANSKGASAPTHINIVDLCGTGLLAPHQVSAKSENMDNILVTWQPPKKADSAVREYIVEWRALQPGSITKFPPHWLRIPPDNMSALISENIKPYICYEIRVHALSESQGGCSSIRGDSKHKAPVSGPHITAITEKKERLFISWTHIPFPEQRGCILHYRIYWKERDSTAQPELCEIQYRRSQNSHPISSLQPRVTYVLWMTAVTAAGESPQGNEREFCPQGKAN

B1: anti-IL-12Rβ2 VHH clone 2CRH10 (clone ID 20362) (VHH, not shown: small tags and cut ends)
VHH: QVQLQESGGGLVQAGGSLVLSCAASGSAALIFLMSWYRQAPGKQRELVAEVSRGGSTTYADSVEGRFHISRDNAKNIVDLQMNSLKPEDTAVYYCKADQNYGDSLRSSWGRGTQVTVSS
notes: periplasmic extract
B2: anti-IL-12Rβ2 VHH clone 2CRH73 (clone ID 20369) (VHH, not shown: small tags and cut ends)
VHH: QVQLQESGGGLVQAGGSLRLTCTASGSAALIFLMSWYRQAPGKQRELVAEVSRRGSTTYADSVEGRFTISRDNAKNIVDLQMNSLKPEDTAVYYCKADQYYGDSLRSSWGRGTQVTVSS
notes: periplasmic extract
B3: anti-IL-12Rβ2 VHH clone 3CRH5 (clone ID 20373) (VHH, not shown: small tags and cut ends)
VHH: QVQLQESGGGLVQAGGSLVLSCAASGSAALIFLMSWYRQAPGKQRELVAEVSRGGSTTYADSVEGRFTISRDNAKNIVDLQMNSLKPEDTAVYYCKADQNYGDSLRSSWGQGTQVTVSS
notes: periplasmic extract
B4: anti-IL-12Rβ2 VHH clone 3CRHS184 (clone ID 20441) (VHH, not shown: small tags and cut ends)
VHH: QVQLQESGGGLVQAGGSLVLSCAASGSAALIFLMSWYRQAPGKQRELVAEVSRYGSTTYADSVEGRFTISRDNAKNIVDLQMNSLKPEDTAVYYCKADQYYGDSLRSSWGRGTQLTVSS
notes: periplasmic extract
B5: anti-IL-12Rβ2 VHH clone 3CRHS9 (clone ID 20415) (VHH, not shown: small tags and cut ends)
VHH: QVQLQESGGGLVQPGGSLRLSCTASGSIVSIYNMDWYRQAPGNEREWVASITSSGDPYYDGSAKGRFTISRDNAKMTVYLQMNSLKPEDTAVYYCKVPTEKGNYWGQGTQVTVSS
notes: periplasmic extract
B6: anti-IL-12Rβ2 VHH clone 3CRH18 (clone ID 20377) (VHH, not shown: small tags and cut ends)
VHH: QVQLQESGGGLVQPGGSLRLSCTASGNIVSIYNMDWYRQAPGNQREWVASITSSGDPYYDGSAKGRFTISRDNAKMTVYLQMNSLRPEDTAVYYCKVPTEKGNYWGQGTQVTVSS
notes: periplasmic extract
B7: anti-IL-12Rβ2 VHH clone 3CRH27 (clone ID 20379) (VHH, not shown: small tags and cut ends)
VHH: QVQLQESGGGLVQAGGSLRLSCTASGSIVSIYNMDWYRQAPGNEREWVASITSSGDPYYDGSAKGRFTISRDNAKMTVYLQMNSLKPEDTAVYYCKVPTEKGNYWGQGTQVTVSS
notes: periplasmic extract
B8: anti-IL-12Rβ2 VHH clone 3CRH68 (clone ID 20388) (VHH, not shown: small tags and cut ends)
VHH: QVQLQESGGGLVQPGGSLRLSCTASGSILSIYNMDWYRQVPGNQREWVASITPSGDPYYDGSVKGRFTISRDNAKMMVYLQMNSLKPEDTAVYYCKVPTEKGNYWGQGTQVTVSS
notes: periplasmic extract
B9: anti-IL-12Rβ2 VHH clone 3CRHS3 (clone ID 20414) (VHH, not shown: small tags and cut ends)
VHH: QVQLQESGGGLVQPGGSLRLSCTASGSIFSIYNMDWYRQAPGNQREWVASITSSGDPYYDASVKGRFTISRDSAKMTVYLQMNSLKPEDTAVYYCKLPTEKGNYWGQGTQVTVSS
notes: periplasmic extract
B10: anti-IL-12Rβ2 VHH clone 3CRHS54 (clone ID 20422) (VHH, not shown: small tags and cut ends)
VHH: QVQLQESGGGLVQPGGSLRLSCTASGSIVSIYNMDWYRQAPGNEREWVASITSSGDPYYDGSAKGRFTISRDNAKMTVYLQMNSLEPEDTAVYFCKVPTEKGNYWGQGTQVTVSS
notes: periplasmic extract
B11: anti-IL-12Rβ2 VHH clone 3CRHS55 (clone ID 20423) (VHH, not shown: small tags and cut ends)
VHH: QVQLQESGGGLVQAGGSLNLSCTASGSIISIYNMDWYRQAPGNQREWVASITSNGDSYYDGSAKGRFTISRDNAKMTVYLQMNSLKPEDTAVYYCKVPTENGNYWGQGTQVTVSS
notes: periplasmic extract
B12: anti-IL-12Rβ2 VHH clone 3CRHS100 (clone ID 20428) (VHH, not shown: small tags and cut ends)
VHH: QVQLQESGGGLVQPGGSLRLSCTASGSIFSIYNMDWYRQAPGNQREWVASITPSGDPYYDDSAKGRFTISRDNAKMTVYLQMNSLKPEDTAVYYCKVPTEKGNYWGQGTQVTVSS
notes: periplasmic extract
B13: anti-IL-12Rβ2 VHH clone 3CRHS148 (clone ID 20436) (VHH, not shown: small tags and cut ends)
VHH: QVQLQESGGGLVQPGGSLRLSCIASGSIFSIYNMDWYRQAPGNQREWVASITPSGDPYYDDSAKGRFTISRDNAKMTVYLQMNSLKPEDTAVYYCKVPTEKGNYWGQGTQVTVSS
notes: periplasmic extract
B14: anti-IL-12Rβ2 VHH clone 2CRH33 (clone ID 20363) (VHH, not shown: small tags and cut ends)
VHH: QVQLQESGGGSVQPGWSLRLTCAASGFTFSTSGMHWFRQAPGKGLEWVSSISSGGGDTYYTDSVKGRITISRDNAKNTLYLQLNDLKSEDTAVYYCSKDPSGATRGQGTQVTVSS
notes: periplasmic extract
B15: anti-IL-12Rβ2 VHH clone 2CRH60 (clone ID 20367) (VHH, not shown: small tags and cut ends)
VHH: QVQLQESGGGSVQPGGSLRLTCAASGFTFSTSGMHWFRQAPGKGLEWVSSISSGGGDTYYTDSVKGRITISRDNAKNTLYLQLNDLKSEDTAVYYCSKDPSGATRGQGTQVTVSS
notes: periplasmic extract
B16: anti-IL-12Rβ2 VHH clone 3CRHS1 (clone ID 20412) (VHH, not shown: small tags and cut ends)
VHH: QVQLQESGGGSVQPGGSLRLSCAASGFTFSTSGMHWFRQAPGKGLEWVSSIGIIVDSSYYASSVKGRFTISRDNAKNTLYLQMNSLKSEDTAVYYCSKDPTGSSRGQGTQVTVSS
notes: periplasmic extract
B17: anti-IL-12Rβ2 VHH clone 2CRH80 (clone ID 20371) (VHH, not shown: small tags and cut ends)
VHH: QVQLQESGGGLVQPGGSLRLSCAASGFTFSTSGMHWFRQAPGKGLEWVSSIGIIVGSSYYASSVKGRFTISRDNAKNTLYLHMNSLKSEDTAVYYCSKDVTGSSRGQGTQVTVSS
notes: periplasmic extract
B18: anti-IL-12Rβ2 VHH clone 3CRH14 (clone ID 20374) (VHH, not shown: small tags and cut ends)
VHH: QVQLQESGGGLVQPGGSLRLSCAASGFTFSTSGMHWFRQAPGKGLEWVSSIGIIVDSSYYADSVKGRFTISRDNAKNTLFLQMNSLKSEDTAVYYCSKDPTGSSRGQGTQVTVSS
notes: periplasmic extract
B19: anti-IL-12Rβ2 VHH clone 3CRH43 (clone ID 20382) (VHH, not shown: small tags and cut ends)
VHH: QVQLQESGGGSVQPGGSLRLSCAASGFTFSTSGMHWFRQAPGKGLEWVSSIGIIVDSSYYASSVKGRFTISRDNAKNIVYLQMNSLKSEDTAVYYCSKDPTGSSRGQGTQVTVSS
notes: periplasmic extract
B20: anti-IL-12Rβ2 VHH clone 3CRH45 (clone ID 20383) (VHH, not shown: small tags and cut ends)
VHH: QVQLQESGGGLVQPGGSLRLSCAASGFTFSTFGMHWFRQAPGKGLEWVSSIGIIDDNSYYASSVKGRFTISRDNAKNTLYLQMNSLKSEDTAVYYCSKDTTGSSRGQGTQVTVSS
notes: periplasmic extract
B21: anti-IL-12Rβ2 VHH clone 3CRHS109 (clone ID 20430) (VHH, not shown: small tags and cut ends)
VHH: QVQLQESGGGLVQPGGSLRLSCAASGFTFSTSGMHWFRQAPGKGLEWVSSIGIIVDSSYYASSVKGRFTISRDNAKNTLYLHMNSLKSEDTAVYYCSKDVTGSSRGQGTQVTVSS
notes: periplasmic extract

How the values were obtained:
[1] = molecular target: T1, biotinylated recombinant human IL-12Rβ2; assay: BLI, P.E., off-rate ranking
[2] = molecular target: T1, biotinylated recombinant human IL-12Rβ2; assay: ELISA, P.E., biotinylated antigen
[3] = molecular target: T2, biotinylated recombinant mouse IL-12Rβ2; assay: ELISA, P.E., biotinylated antigen

| Binder | Response [1] | koff [1] [s⁻¹] | ELISA hIL-12RB2/control [2] | ELISA mIL-12RB2/control [3] |
| --- | --- | --- | --- | --- |
| B1 | 0.496 | 0.00524 | 6.22 | 0.886 |
| B2 | 0.547 | 0.00536 | 4.37 | 0.606 |
| B3 | 0.491 | 0.00337 | 8.64 | 0.808 |
| B4 | 0.515 | 0.00385 | 4.17 | 1.06 |
| B5 | 0.222 | 0.0034 | 5.08 | 1.09 |
| B6 | -0.19 | – | 5.84 | 1.8 |
| B7 | 0.138 | 0.00264 | 10.2 | 1.44 |
| B8 | 0.426 | 0.00444 | 4.66 | 1.03 |
| B9 | 0.327 | 0.00225 | 6.39 | 1.05 |
| B10 | 0.203 | 0.00272 | 7.85 | 1.26 |
| B11 | 0.204 | 0.00296 | 3.76 | 1.11 |
| B12 | 0.209 | 0.00322 | 5.88 | 1.05 |
| B13 | 0.0184 | – | 3.36 | 0.74 |
| B14 | 0.621 | 0.00491 | 6.44 | 0.971 |
| B15 | 0.661 | 0.00533 | 5.31 | 0.866 |
| B16 | 0.3 | 0.00283 | 6.74 | 1.01 |
| B17 | 0.53 | 0.00353 | 5.01 | 1.23 |
| B18 | 0.438 | 0.00328 | 5.51 | 1.19 |
| B19 | 0.296 | 0.00243 | 4.75 | 0.828 |
| B20 | 0.427 | 0.00361 | 4.58 | 1.39 |
| B21 | 0.745 | 0.0374 | 3.18 | 1.07 |
